T1: Snu17p (residues 1-113) (S. cerevisiae, UniProt P40565 1-113)
T1 construct: 15N- or 15N/13C-labelled for NMR; also called Snu17p RRM with N-terminal unstructured extension; source: E. coli BL21(DE3) pLysS, purified (Ni-NTA, TEV cleavage, second Ni-NTA, SEC Superdex 75); not shown: His6, N-terminal, cleaved; GST, N-terminal, cleaved
T1 sequence (looked up): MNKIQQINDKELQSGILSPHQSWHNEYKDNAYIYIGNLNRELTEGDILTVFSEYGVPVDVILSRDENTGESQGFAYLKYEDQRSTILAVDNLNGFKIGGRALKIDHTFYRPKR


Tests used:
Snu17p (residues 1-113) [1] = molecular target: T1, Snu17p (residues 1-113); test: ITC; VP-ITC, 25 °C, NMR buffer (20 mM sodium phosphate pH 6.3, 25 mM NaCl, 2 mM DTT or TCEP); Snu17p (residues 1-113) 30-70 uM in the cell, Bud13p ligands 0.6-1.1 mM in the syringe; one- or two-step binding models; conditions: both partners purified
Snu17p (residues 1-113) [2] = molecular target: T1, Snu17p (residues 1-113); test: NMR titration; 1H,15N correlation (HSQC) spectra of 15N-labelled Snu17p (residues 1-113) on addition of Bud13p peptides; 298 K; 20 mM sodium phosphate pH 6.3, 25 mM NaCl, 2 mM DTT or TCEP; conditions: both partners purified

| fold weaker dissociation constant than the longer Bud13p ligands (Snu17p (residues 1-113) [1]) [fold] | binding result (Snu17p (residues 1-113) [2]) | Binder |
| --- | --- | --- |
| 50 | – | ENRFAIMPGSRWDGVHRSNGFE (peptide, UniProt P46947 221-242, looked up, Bud13p, S. cerevisiae, residues 221-242; also called 22-mer Bud13p peptide; shorter Bud13p peptide; source: synthetic peptide, bought: Peptide Specialty Laboratories (Heidelberg), dialyzed) [Bud13p peptide (residues 221-242)] |
| – | binds | Bud13p (residues 201-266) (domain or fragment, also called 66-mer Bud13p peptide; very long Bud13p peptide; source: E. coli BL21(DE3) pLysS, purified (Ni-NTA, TEV cleavage, second Ni-NTA, SEC Superdex 75); not shown: His6, N-terminal, cleaved; GST, N-terminal, cleaved) not shown |
